The target of one data set is T1, RelA (Escherichia coli, UniProt P0AG20).
T1 sequence (P0AG20 1-744): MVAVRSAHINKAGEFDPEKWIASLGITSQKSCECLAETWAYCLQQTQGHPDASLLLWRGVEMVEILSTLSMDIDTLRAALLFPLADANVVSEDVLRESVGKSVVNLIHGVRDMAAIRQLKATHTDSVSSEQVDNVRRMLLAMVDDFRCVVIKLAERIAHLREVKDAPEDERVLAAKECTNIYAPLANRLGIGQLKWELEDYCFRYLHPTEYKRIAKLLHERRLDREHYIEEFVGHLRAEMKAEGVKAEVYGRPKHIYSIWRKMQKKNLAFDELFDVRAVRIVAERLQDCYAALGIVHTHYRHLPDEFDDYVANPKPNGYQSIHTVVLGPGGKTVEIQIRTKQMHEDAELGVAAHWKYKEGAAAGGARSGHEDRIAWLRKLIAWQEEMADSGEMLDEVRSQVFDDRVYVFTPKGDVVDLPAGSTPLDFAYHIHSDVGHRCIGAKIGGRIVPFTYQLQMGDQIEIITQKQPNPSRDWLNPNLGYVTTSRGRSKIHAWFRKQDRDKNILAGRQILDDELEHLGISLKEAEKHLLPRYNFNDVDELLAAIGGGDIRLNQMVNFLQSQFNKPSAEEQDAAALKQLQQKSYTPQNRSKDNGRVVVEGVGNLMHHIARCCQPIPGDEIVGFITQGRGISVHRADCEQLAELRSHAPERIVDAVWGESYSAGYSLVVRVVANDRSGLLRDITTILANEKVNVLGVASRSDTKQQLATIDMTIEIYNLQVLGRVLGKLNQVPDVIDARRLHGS
Nature of the data set: DRaCALA with […]-ppGpp in overexpression lysate. It is filed as cell-based.

For a further data set, the target named is ObgE (Escherichia coli, UniProt P42641). Nature of the data set: DRaCALA with […]-ppGpp in overexpression lysate. The class given is cell-based.
A further data set addresses SpeF (Escherichia coli, UniProt P24169). Nature of the data set: DRaCALA with […]-ppGpp in overexpression lysate. The class given is cell-based.
For data set [1], the target named is T2, ^strepLpxA (E. coli, UniProt P0A722 1-262).
T2 sequence: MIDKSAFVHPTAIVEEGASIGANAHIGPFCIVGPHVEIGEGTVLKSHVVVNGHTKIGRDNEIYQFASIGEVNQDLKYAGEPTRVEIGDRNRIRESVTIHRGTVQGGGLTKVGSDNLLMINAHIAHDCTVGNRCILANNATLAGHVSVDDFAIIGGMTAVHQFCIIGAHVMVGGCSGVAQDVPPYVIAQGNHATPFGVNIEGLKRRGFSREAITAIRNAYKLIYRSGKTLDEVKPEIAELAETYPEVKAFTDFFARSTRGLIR
Nature of the data set: MST.

Data set [2] deals with T2, ^strepLpxA. Nature of the data set: MST. The source holds these as a separate data set.
Substrate in the data set “purified protein”: CC(=O)N[C@H]1[C@@H](OP(=O)(O)OP(=O)(O)OC[C@H]2O[C@@H](n3ccc(=O)[nH]c3=O)[C@H](O)[C@@H]2O)O[C@H](CO)[C@@H](O)[C@@H]1O
Nature of the data set: purified protein.

The record followed here is article PMC10326835 (microLife, 2023).

Broadly, the Km is the substrate concentration at which the rate is half of its maximum.

Read-outs that look alike come from different tables or passages of the source.

ObgE, sequence (P42641 whole entry): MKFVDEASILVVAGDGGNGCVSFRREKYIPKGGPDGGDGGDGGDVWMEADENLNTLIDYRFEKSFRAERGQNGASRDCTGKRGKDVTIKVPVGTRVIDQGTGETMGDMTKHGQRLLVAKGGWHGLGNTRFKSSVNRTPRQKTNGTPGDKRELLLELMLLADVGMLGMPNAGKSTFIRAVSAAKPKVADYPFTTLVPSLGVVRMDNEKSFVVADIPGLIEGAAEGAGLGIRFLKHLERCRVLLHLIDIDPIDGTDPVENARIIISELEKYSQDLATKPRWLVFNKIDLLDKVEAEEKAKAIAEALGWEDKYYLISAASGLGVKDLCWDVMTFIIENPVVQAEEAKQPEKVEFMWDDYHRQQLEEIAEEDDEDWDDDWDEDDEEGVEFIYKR
SpeF, sequence (P24169 whole entry): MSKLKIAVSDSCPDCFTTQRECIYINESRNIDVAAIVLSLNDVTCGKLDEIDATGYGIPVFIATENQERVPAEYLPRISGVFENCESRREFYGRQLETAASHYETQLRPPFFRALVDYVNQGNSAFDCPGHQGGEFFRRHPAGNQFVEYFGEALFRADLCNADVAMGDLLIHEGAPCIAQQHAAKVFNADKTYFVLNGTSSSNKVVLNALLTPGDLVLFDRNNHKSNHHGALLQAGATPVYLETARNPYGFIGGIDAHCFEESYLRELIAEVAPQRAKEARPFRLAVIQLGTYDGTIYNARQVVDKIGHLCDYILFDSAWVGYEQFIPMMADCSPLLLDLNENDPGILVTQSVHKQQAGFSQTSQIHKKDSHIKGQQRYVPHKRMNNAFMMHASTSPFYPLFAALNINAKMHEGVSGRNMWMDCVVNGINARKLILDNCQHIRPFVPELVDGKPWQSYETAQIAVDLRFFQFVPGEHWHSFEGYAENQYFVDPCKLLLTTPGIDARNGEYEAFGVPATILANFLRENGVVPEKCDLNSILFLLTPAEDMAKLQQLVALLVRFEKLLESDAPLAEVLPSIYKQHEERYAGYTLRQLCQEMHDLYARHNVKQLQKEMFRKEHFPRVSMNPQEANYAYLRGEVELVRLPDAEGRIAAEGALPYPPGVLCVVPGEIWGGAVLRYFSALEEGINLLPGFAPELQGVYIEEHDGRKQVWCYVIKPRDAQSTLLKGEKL

`Nc1nc2c(ncn2[C@@H]2O[C@H](COP(=O)(O)OP(=O)(O)O)[C@@H](OP(=O)(O)OP(=O)(O)O)[C@H]2O)c(=O)[nH]1` [ppGpp]: at RelA, the “% (reference binding)” value is listed as 100 % (reference binding). In addition, the results for the “% relative to RelA” value on ObgE and at SpeF were 86 ± 12 % relative to RelA and 73 ± 12 % relative to RelA, respectively.

B1: ^His-SUMORnhA (enzyme, E. coli, UniProt P0A7Y4 1-155, looked up)
chain: MLKQVEIFTDGSCLGNPGPGGYGAILRYRGREKTFSAGYTRTTNNRMELMAAIVALEALKEHCEVILSTDSQYVRQGITQWIHNWKKRGWKTADKKPVKNVDLWQRLDAALGQHQIKWEWVKGHAGHPENERCDELARAAAMNPTLEDTGYQVEV
modifications: fluorescently labeled with the His-Tag Labeling Kit RED-tris-NTA
For B1, the binding result with ^strepLpxA [1] is listed as “binds”.

B2: ^HisRnhA (enzyme, E. coli, UniProt P0A7Y4 1-155, looked up)
chain: MLKQVEIFTDGSCLGNPGPGGYGAILRYRGREKTFSAGYTRTTNNRMELMAAIVALEALKEHCEVILSTDSQYVRQGITQWIHNWKKRGWKTADKKPVKNVDLWQRLDAALGQHQIKWEWVKGHAGHPENERCDELARAAAMNPTLEDTGYQVEV
modifications: fluorescently labeled with the His-Tag Labeling Kit RED-tris-NTA
For B2, the binding result with ^strepLpxA [2] was “binds”.

B3: ^HisRnhB (enzyme, E. coli, UniProt P10442 1-198, looked up)
chain: MIEFVYPHTQLVAGVDEVGRGPLVGAVVTAAVILDPARPIAGLNDSKKLSEKRRLALYEEIKEKALSWSLGRAEPHEIDELNILHATMLAMQRAVAGLHIAPEYVLIDGNRCPKLPMPAMAVVKGDSRVPEISAASILAKVTRDAEMAALDIVFPQYGFAQHKGYPTAFHLEKLAEHGATEHHRRSFGPVKRALGLAS
modifications: fluorescently labeled with the His-Tag Labeling Kit RED-tris-NTA
Consider B3, for which, in the data set with ^strepLpxA [2], the binding result was “binds”.

B4: ^His-SUMORnhB (enzyme, E. coli, UniProt P10442 1-198, looked up)
chain: MIEFVYPHTQLVAGVDEVGRGPLVGAVVTAAVILDPARPIAGLNDSKKLSEKRRLALYEEIKEKALSWSLGRAEPHEIDELNILHATMLAMQRAVAGLHIAPEYVLIDGNRCPKLPMPAMAVVKGDSRVPEISAASILAKVTRDAEMAALDIVFPQYGFAQHKGYPTAFHLEKLAEHGATEHHRRSFGPVKRALGLAS
modifications: fluorescently labeled with the His-Tag Labeling Kit RED-tris-NTA
With B4, the binding result with ^strepLpxA [1] is “binds”.

B5: LpxA (Escherichia coli K-12) (protein)
chain: MIDKSAFVHPTAIVEEGASIGANAHIGPFCIVGPHVEIGEGTVLKSHVVVNGHTKIGRDNEIYQFASIGEVNQDLKYAGEPTRVEIGDRNRIRESVTIHRGTVQGGGLTKVGSDNLLMINAHIAHDCTVGNRCILANNATLAGHVSVDDFAIIGGMTAVHQFCIIGAHVMVGGCSGVAQDVPPYVIAQGNHATPFGVNIEGLKRRGFSREAITAIRNAYKLIYRSGKTLDEVKPEIAELAETYPEVKAFTDFFARSTRGLIR
As for B5, the Km in the data set “purified protein” is 494 µM.
